From patent US20170349905A1

Key:
[1] = biological target: second domain of Cas9 protein (half domain comprising the C-terminus, beginning with the QG amino acids of the SGQG linker; NLS and HA tag at its C-terminus) (UniProt Q99ZW2); test: cell-based or functional assay
[2] = biological target: second domain of Cas9 protein delivered by adeno-associated virus vector (splicing acceptor linked t (UniProt Q99ZW2)); test: cell-based or functional assay
Sequence of second domain of Cas9 protein delivered by adeno-associated virus vector (splicing acceptor linked t (Q99ZW2 716-1368 limits assumed): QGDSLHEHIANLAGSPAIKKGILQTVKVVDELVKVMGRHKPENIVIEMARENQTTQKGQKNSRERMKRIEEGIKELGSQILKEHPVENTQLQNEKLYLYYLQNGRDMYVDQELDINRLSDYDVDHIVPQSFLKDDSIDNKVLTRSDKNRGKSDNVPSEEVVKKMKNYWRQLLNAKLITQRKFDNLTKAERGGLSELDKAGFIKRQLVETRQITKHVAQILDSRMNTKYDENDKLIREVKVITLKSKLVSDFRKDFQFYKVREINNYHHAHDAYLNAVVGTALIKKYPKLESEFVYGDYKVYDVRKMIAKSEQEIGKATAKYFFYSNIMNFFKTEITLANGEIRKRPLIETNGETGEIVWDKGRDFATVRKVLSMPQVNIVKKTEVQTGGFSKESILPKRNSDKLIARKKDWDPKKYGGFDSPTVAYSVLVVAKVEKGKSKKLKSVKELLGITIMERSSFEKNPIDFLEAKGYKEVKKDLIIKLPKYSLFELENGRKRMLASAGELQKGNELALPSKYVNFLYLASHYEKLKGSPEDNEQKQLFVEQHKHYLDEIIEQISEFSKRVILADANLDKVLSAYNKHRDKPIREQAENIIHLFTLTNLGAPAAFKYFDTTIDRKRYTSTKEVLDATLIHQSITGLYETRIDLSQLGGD

Sequence of second domain of Cas9 protein (half domain comprising the C-terminus, beginning with the QG amino acids of the SGQG linker; NLS and HA tag at its C-terminus) (Q99ZW2 716-1368): as the sequence (Q99ZW2 716-1368 limits assumed) above

Substance	Indel frequency in the CCR5 gene (next-generation sequencing) [1]	Indel frequency in the DMD gene (next-generation sequencing) [1]	Indel frequency in the HPRT gene (next-generation sequencing) [1]	target sequence cleavage rate (DMD exon 51) in Hela cells co-infected with AAV, next-generation sequencing [2]
first domain of Cas9 protein (half domain comprising the N-terminus, ending in the SG amino acids of the SGQG linker; HA tag and NLS at its N-terminus) (from UniProt Q99ZW2 1-715) (enzyme)	20.3%	23.8%	27.1%	
first domain of Cas9 protein delivered by adeno-associated virus vector (splicing donor linked to the C-terminal region) (from UniProt Q99ZW2 1-715) (enzyme)				5%
